B1: Twister Ribozyme (parent)
chain: AACACUGCCAAUGCCGGUCCCAAGCCCGGAUAAAAGUGGAGGGGGCGG

The data set covers variants of B1. The experiment in a line: self-cleavage, relative activity (ratio to wild type); higher = more cleavage; co-transcriptional.
In the case of AACACUGCCAAUGCCGGUUCCAAGCCCGGAUAAAAGUGGAGGGGGCGU [C19U G48U], the self-cleavage was 0.91. For AACACUGCCAAUGCCGAUCCCAAGCGCGGAUAAAAGUGGAGGGGGCGG [G17A C26G], the self-cleavage turned out to be 0.442.

Consider AACACUGCCAAUGCCGGUGCCAAGCCCGGAUAUAAGUGGAGGGGGCGG [C19G A33U], for which the self-cleavage is 0.187.

For the variant AACACUACCAAUGCCGGUCCCAAGCCCGGAUAAAAGUGGCGGGGGCGG [G7A A40C], the self-cleavage amounted to 0.132. Turning to AACACUGCCAAUGCCGUUCCCAAGCCCGGAUAAAAAUGGAGGGGGCGG [G17U G36A], the self-cleavage was 0.124. AACACUGCCAAUGCCGGGCCCAAUCCCGGAUAAAAGUGGAGGGGGCGG [U18G G24U]: the self-cleavage is 0.0765.

On to CACACUGCCAAUGCCGGUCCCAAGCCCGGAUAACAGUGGAGGGGGCGG [A1C A34C], for which the self-cleavage turned out to be 0.214. Regarding AACACUGCCAAUGCCGGUCCCAAUCCCGGAUAAAAGUGGACGGGGCGG [G24U G41C], the self-cleavage amounted to 0.0917. Regarding AACACUGCCAAUGCCGGUCCCAAGCCCGAAUAAAAGUGCAGGGGGCGG [G29A G39C], the self-cleavage turned out to be 0.166. In the case of AACACUGCCAUUGCCGGUCCCAAGCCCGGAUCAAAGUGGAGGGGGCGG [A11U A32C], the self-cleavage came out at 0.926. For AACACUGCCAAUGCCGGUGCCAAGCCCGGAUAAAAGUGGAGGGAGCGG [C19G G44A], the self-cleavage was 0.351. For AACACUGCCAAUGCCGGUCCCAAGCUCGGAUAAAAGAGGAGGGGGCGG [C26U U37A], the self-cleavage is 0.121. For AACACUGCCAAUGCCGGUCCAAAGCGCGGAUAAAAGUGGAGGGGGCGG [C21A C26G], the self-cleavage worked out at 0.0786. The figure for AACACUGCCAAUGCCGGUGCCAAGCCCGGAUAAAAGUGGAGGGGGGGG [C19G C46G] is 0.165. Under AACACUGCCAAUGUCGGUCCCAAGCCCGGAUAAAAGUGGAGUGGGCGG [C14U G42U] stands 0.486. AACACUGCCAAAGCCGGUCCCAAGCCCGGAUAAAAGUGGAGGGGGCGA [U12A G48A]: the self-cleavage was determined as 0.991. For the variant AACACUGCCAAUGCCGGUCCCAAGUCCGGAUAAAAGUGGAGGGGGCGU [C25U G48U], the self-cleavage worked out at 0.813.

As to AACACUGCCAAUGCCGGUCCCCAGCCCGGAUAAAUGUGGAGGGGGCGG [A22C A35U], the self-cleavage turned out to be 0.962.

Take UACACUGCAAAUGCCGGUCCCAAGCCCGGAUAAAAGUGGAGGGGGCGG [A1U C9A]: the self-cleavage amounted to 0.0518.

Turning to AACACUGCCAAUGCCCGUCCCAAGCCCGGGUAAAAGUGGAGGGGGCGG [G16C A30G], the self-cleavage came out at 0.31. The figure for AACACUGCCAAUGCCGGUCCCAAUCCCGGAUUAAAGUGGAGGGGGCGG [G24U A32U] is 0.0649; for AACACUGCCGAUGCCCGUCCCAAGCCCGGAUAAAAGUGGAGGGGGCGG [A10G G16C] it is 0.567. In the case of AACACUGCCAAUGCCGGUCCCAAGCCCGGAAACAAGUGGAGGGGGCGG [U31A A33C], the self-cleavage was 0.833. Under AACACUGCCAAUGCCGGGCCCAAGCCCGGAUAAAAGAGGAGGGGGCGG [U18G U37A] stands 0.063; under AACACUGCCAAUGCCGGUCGCAAGCCCGGAUAAAUGUGGAGGGGGCGG [C20G A35U], 0.182. AACACUGCCAAUGCCGGUCCCAAACCCGGAUAAAAGUGUAGGGGGCGG [G24A G39U]: the self-cleavage is 0.0747. Regarding AACACUGCCAAUGCCGGUCCCAAGCCGGGAUCAAAGUGGAGGGGGCGG [C27G A32C], the self-cleavage was found to be 0.137. With AACACUGCCAAUGCCGGUCCCACGCUCGGAUAAAAGUGGAGGGGGCGG [A23C C26U], the self-cleavage turned out to be 0.0813. Under AACACAGCCAAAGCCGGUCCCAAGCCCGGAUAAAAGUGGAGGGGGCGG [U6A U12A] stands 1.13; under AACACUGCCAAUGCCGGUCCCGAGCCCGGAUAAAAGUGGAGUGGGCGG [A22G G42U], 0.0653. On to AACACUGCCAAUGCAGGUCCCAAGCCCGGAUAAAAGAGGAGGGGGCGG [C15A U37A], for which the self-cleavage came to 0.129.

As for AACACUGCCAAUGCCGGUCCCAAGCCCGGAUAAUAGUGGACGGGGCGG [A34U G41C], the self-cleavage was 0.176. Turning to AACUCUGCCAAUGCCGGUCCCAAGCCCGGAUAAAAGUGGAGGGUGCGG [A4U G44U], the self-cleavage was 0.146.

On to AACACUGCCAAUGCCGUUCCCAAGCCCGGAUAAAAGUGGAGGGGGCGU [G17U G48U], for which the self-cleavage is 0.316. On to AACACUGCCAAGGCCGGUCCCAAGCCCGCAUAAAAGUGGAGGGGGCGG [U12G G29C], for which the self-cleavage amounted to 0.677. Under AACAGUGCCAAUGCCGGUCCCAAGCCCCGAUAAAAGUGGAGGGGGCGG [C5G G28C] stands 0.212; under AACGCUGCCAAUGCGGGUCCCAAGCCCGGAUAAAAGUGGAGGGGGCGG [A4G C15G], 0.0751. As to AACACAGCCAAUGCCGGUCCCAAUCCCGGAUAAAAGUGGAGGGGGCGG [U6A G24U], the self-cleavage turned out to be 0.0898. As to AACACUGCCAAUGCCGGCUCCAAGCCCGGAUAAAAGUGGAGGGGGCGG [U18C C19U], the self-cleavage was determined as 0.247. AACACUGCCAAUGCGGGUCCCAAGCUCGGAUAAAAGUGGAGGGGGCGG [C15G C26U]: the self-cleavage was found to be 0.0429. Turning to AACACUGCCAAUGCCGGUCCCAAGCCCGGAUUAAAGCGGAGGGGGCGG [A32U U37C], the self-cleavage was determined as 0.669. On to AACACGGCCAAUGCCGGACCCAAGCCCGGAUAAAAGUGGAGGGGGCGG [U6G U18A], for which the self-cleavage worked out at 0.0684. In the case of UACACUGCCAAUGCCGGUCCCAAGGCCGGAUAAAAGUGGAGGGGGCGG [A1U C25G], the self-cleavage came to 0.0576.

AACACUGCCAAUGCCGGUCCCAAGCCACGAUAAAAGUGGAGGGGGCGG [C27A G28C]: the self-cleavage was found to be 0.323.

Turning to CACACUGCCAAUGCCGGUCCCAAGCCCGGAUAAAAGUGGAGGGGGCAG [A1C G47A], the self-cleavage was 0.168.

As for AACCCUGCCAAUGCCGGUCCCAAGCCCGGAUAAAAGUGGAGGGGGUGG [A4C C46U], the self-cleavage was 0.163.

Consider AACACGCCCAAUGCCGGUCCCAAGCCCGGAUAAAAGUGGAGGGGGCGG [U6G G7C], for which the self-cleavage was determined as 0.873. In the case of AACACUGCCAAUGCCGGUCCCAAGCCCGGAUCAAAUUGGAGGGGGCGG [A32C G36U], the self-cleavage turned out to be 0.184. As for AACACUGCCAAUGCCGGUCCCAAGCCCGGAUAAAGAUGGAGGGGGCGG [A35G G36A], the self-cleavage turned out to be 0.718. The figure for AACACUACCAAUGCCGGUCCCAAGCCCGGAUAAAAGUGGAGGCGGCGG [G7A G43C] is 0.123; for AACACUGCCAAUGCCGGUCCCAAGCCCGGAUUAAAGUGGAGGUGGCGG [A32U G43U] it is 0.384. Under AACACUGCCAAUGCCGGUCCCAAGCCCGGACAAAAGUGGAGGGGGCUG [U31C G47U] stands 1.02; under AACCCUGCCAAUGCCGGUCCCAAGCCCGGAUAAAAGUCGAGGGGGCGG [A4C G38C], 0.61.

Turning to AACACUGACAAUGCCGGUCCCAAGCCCGGAUAAAAGUGGAGGGGGCGG [C8A], the self-cleavage was 0.61.

For the origin of these results see the RNAGym collection of RNA variant scans (doi:10.7554/elife.80360).
